Laboratory results: patent publication US20030232325A1 (MOUNT SINAI SCHOOL OF MEDICINE OF NEW YORK UNIVERSITY, published 2003)

Key:
[1] = molecular target: T1, gst alone (glutathione-S-transferase expressed from pGEX-2TK) (UniProt P08515 1-218 = GST); experiment: far-western blot, 32P-labelled gst probe on bacterial extract
[2] = molecular target: T1, gst alone (glutathione-S-transferase …); experiment: far-western blot, 32P-labelled gst probe
[3] = molecular target: VSV M protein (form used not stated; discussion of Example 9, data not shown) (vesicular stomatitis virus, UniProt P03519 1-229); experiment: far-western blot presumably; data not shown

T1 sequence (P08515 whole entry): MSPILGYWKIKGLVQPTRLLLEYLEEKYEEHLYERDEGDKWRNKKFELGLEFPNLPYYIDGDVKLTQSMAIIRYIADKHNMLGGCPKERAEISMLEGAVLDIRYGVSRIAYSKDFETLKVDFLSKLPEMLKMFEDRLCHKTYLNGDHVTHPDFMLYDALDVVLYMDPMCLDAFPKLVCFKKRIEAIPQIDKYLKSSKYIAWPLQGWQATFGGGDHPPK

B1: gstVSVM74WT (gst fused to the N-terminal 74 amino acids of VSV (Ind.) M protein, wild type PY motif) (other)
chain: MSSLKKILGLKGKGKKSKKLGIAPPPYEEDTSMEYAPSAPIDKSYFGVDEMDTYDPNQLRYEKFFFTVKMTVRS
[1]
  binding result: no binding

B2: gstRabM202 (gst fused to amino acids 1-202, full-length, of the rabies virus M protein) (other)
chain: MNLLRKIVKNRRDEDTQKSSPASAPLDDDDLWLPPPEYVPLKELTGKKNMRNFCINGRVKVCSPNGYSFRILRHILKSFDEIYSGNHRMIGLVKVVIGLALSGSPVPEGLNWVYKLRRTFIFQWADSRGPLEGEELEYSQEITWDDDTEFVGLQIRVIAKQCHIQGRVWCINMNPRACQLWSDMSLQTQRSEEDKDSSLLLE
[2]
  binding result: no binding

B3: gstRabM69 (gst fused to amino acids 1-69 of the rabies virus M protein) (other)
chain: MNLLRKIVKNRRDEDTQKSSPASAPLDDDDLWLPPPEYVPLKELTGKKNMRNFCINGRVKVCSPNGYSF
[2]
  binding result: no binding

B4: gstRabM52WT (gst fused to amino acids 1-52, wild type, of the rabies virus M protein) (other)
chain: MNLLRKIVKNRRDEDTQKSSPASAPLDDDDLWLPPPEYVPLKELTGKKNMRN
[2]
  binding result: no binding

B5: WW domain from ESS 1 (other)
chain: TGLPTPWTVRYSKSKKREYFFNPETKHSQWEEPEG
notes: domain: WW
[3]
  binding result: no binding
